Experimental data taken from the DeepSol protein solubility set.

test: soluble on expression in E. coli; label from the status in PepcDB or PDB records

**Q.** With “MHDKMHDTGTRSDMARFNPLHGNPLKSRADVRRALDDSFAPLLPYFSPGGARVALSGTAAHFDRAAADLEGFARPLWGIAPLALSGDTFAHWPLLAKGIANGTDPAHPDYWGDVRQKDQRLVELAAIGFALRLAPQHLWEPLSDAQKENVSRYLLAARERNYADNNWKFFRVMVDMALDHLGIGFDRSLTETFQKELDDFYIADGWYRDGNYRRIDHYIAFAMHFYGLIYARLSKPDDAYAKRYRERARLFAGDFASWFDEDGGALAFGRSMTYRFACGGFWAGLAFADEEALPWGEIKGLYLSHLRWWAEKPIADRDGVLSIGYAYPQLTMSESYNSAGSPYWAFKAFLPLALPESHPFWQAQETLPKVSTNPHPLVHPGMVMMRAKGNVTALSSGQENLAMRGGPEKYAKFAYSSRYGFGVEVDERGFRTNGFDNILAFSDDGLHYRVRETNRKVLMAGANLRATWKPFPDVTVETTLVAAENWHVRLHRITSARALAVAEGGFAINRNDGERDVVSETGGKATADCGTDISAIVDLGSTISRHGVALKALPNTNLINAKTTVPQLRGEIPAGETMLACAVFAGVAGAESERALAAVPACPDLEALDRLFADRGVPVSAMAGEPQLEHHHHHH” as the sequence, how does the “soluble on expression in E. coli” value read?
**A.** Its value is “not soluble”.

**Q.** For “MKKSAFIFSDGELKRKDSTVLFESEDSKNYLPIEDISDIYIFGEVTVTKKFLELATQKEILLHFYNYNEYYVGTYYPREHYNSGFMILKQAEHYLDEEKRMAIAKKFIHGSVKNMLAVLKYYNNREKDLDRQITAISDLAEKIDEMDEINKLMAIEGNIREIYYGSFDIIVDDEYFEFGKRTKQPPKNRMNSLISFGNSILYTTVLSEIYKTHLDPRIGYLHSTNHRRFTLNLDVAEIFKPIIVDRVIFTLIGKKMLGEKHFEEKAGGIVLNDKGRKQFVAQMLEKLNATLMYKPLGREVSYRRLIRLELYKLEKHLMGEQEYKPYVASW”, which “soluble on expression in E. coli” value is on record?
**A.** The value was “soluble”.

**Q.** With “AIASYCRQEGKDKIIFVTKEDHETPSSAELIADDPNDPFEEQGLILPNGDINWNCPCLGGMASGPCGEQFKSAFSCFHYSQEEIKGSDCLDQFRAMQECMQKYPELYPQEDDEDELEKEKQNKDEESSVTQSSDTKEESSS” as the sequence, how does the “soluble on expression in E. coli” value read?
**A.** The value was “soluble”.

**Q.** With “SNAMIIADNIKQFHSIRNSLIKQQKIGFVPTMGALHNGHISLIKKAKSENDVVIVSIFVNPTQFNNPNDYQTYPNQLQQDIQILASLDVDVLFNPSEKDIYPDGNLLRIEPKLEIANILEGKSRPGHFSGMLTVVLKLLQITKPNNLYLGEKDYQQVMLIKQLVKDFFINTKIIVCPTQRQPSGLPLSSRNKNLTSTDIEIANKIYEILRQDDFSNLEELTNKINSTGAKLQYIQKLNNRIFLAFYIGKVRLIDNFLKETGPSC” as the sequence, how does the “soluble on expression in E. coli” value read?
**A.** The value was “soluble”.

**Q.** With “MTYNVWNFGESNGRYSALTARGISKETCQKAGYWIAKVDGVMYQVADYRDQNGNIVSQKVRDKDKNFKTTGSHKSDALFGKHLWNGGKKIVVTEGEIDMLTVMELQDCKYPVVSLGHGASAAKKTCAANYEYFDQFEQIILMFDMDEAGRKAVEEAAQVLPAGKVRVAVLPCKDANECHLNGHDREIMEQVWNAGPWIPDGVVSALSLRERIREHLSSEESVGLLFSGCTGINDKTLGARGGEVIMVTSGSGMVMSTFVRQQALQWGTAMGKKVGLAMLEESVEETAEDLIGLHNRVRLRQSDSLKREIIENGKFDQWFDELFGNDTFHLYDSFAEAETDRLLAKLAYMRSGLGCDVIILDHISIVVSASGESDERKMIDNLMTKLKGFAKSTGVVLVVICHLKNPDKGKAHEEGRPVSITDLRGSGALRQLSDTIIALERNQQGDMPNLVLVRILKCRFTGDTGIAGYMEYNKETGWLEPSSYSGEEESHSESTDWSNDTDF” as the sequence, how does the “soluble on expression in E. coli” value read?
**A.** Its value is “soluble”.

**Q.** Which “soluble on expression in E. coli” value does the source give for “MLKVEMLSTGDEVLHGQIVDTNAAWLADFFFHQGLPLSRRNTVGDNLDDLVTILRERSQHADVLIVNGGLGPTSDDLSALAAATAKGEGLVLHEAWLKEMERYFHERGRVMAPSNRKQAELPASAEFINNPVGTACGFAVQLNRCLMFFTPGVPSEFKVMVEHEILPRLRERFSLPQPPVCLRLTTFGRSESDLAQSLDTLQLPPGVTMGYRSSMPIIELKLTGPASEQQAMEKLWLDVKRVAGQSVIFEGTEGLPAQISRELQNRQFSLTLSEQFTGGLLALQLSRAGAPLLACEVVPSQEETLAQTAHWITERRANHFAGLALAVSGFENEHLNFALATPDGTLALRVRFSTTRYSLAIRQEVCAMMALNMLRRWLNGQDIASEHGWIEVVESMTLSV” here?
**A.** The value was “soluble”.

**Q.** Which “soluble on expression in E. coli” value does the source give for “MRLIMKPEHSTRGRVIFVGAGPGNPDLLTVRAREVLGSTANAVVDSTVGVGIRAVIAEHLEVPQAKLDAAEAEYERMCAAAKRRKPPRPDAPTAAEITEVSADASVDEVMAVLLPLLDEGDVIRLVQGNPLADSRALDEITAVTQVGADFQIVPGMSLPAAVPAFAGITLGDSYTKTTVSEDTNWDQLATAPLPLILQASKDDLLTIAMELKDRKLPASTPVTVTMNGTTRLQRSFDVTLKTMKSLVKQELDGTLVVTVGVSDRSTFSWWESRALFGWRVLVPRAKDQAGPMSSRIAAYGAIAQEVPTISVEPPRNPAQLERAIKGIVEGRYQWVVFTSVNAVKAVREKIVSFGLDSRAFAGVHIAAVGAKTAAAIREFGITPELIPPRKEHNAAGMVSVFPNYVEGLDPVGRVLLPRADIATDVLVDGLVNLGWEVDDVVAYRTVRAAPPSAEVRDMIKSGDFDAVCFTSASTVRNLVGIAGKPHARTIIACIGPMTAAEAEKQGLRVDVIPEVANVAALVDALAEHVEKLRAAGELPPPRKKRRARRKSKEGAV” here?
**A.** Its value is “not soluble”.

**Q.** For “MAHHHHHHMKRVNAIESNREEARERQLSVVRERAKHEAEKMAEELERRSGATLDEIGRTLEAKKRESSALQADRESRIWECEHTLEKIRTRKEDEESASERLRQAMQQPGQGLGLRQSATETKEQQLEMVQLDGARGREAVMRERHSIEAVRRTVRKERCRQRRQWIHQIKEMNAKFPEQVRPLAEERKKKYEQATAKEDAAERALAADVKMIEEYLPKPISLEDIPVNPEETDIIRHQFDEVFTQ”, which “soluble on expression in E. coli” value is on record?
**A.** The value was “not soluble”.

**Q.** For “MAHHHHHHMVQEWWVSAAQEAVISRKATSRAERIVTEADDPRSGTSHFYDSDARLCLVCNARLEGSYSAHSHSVDHKPRVALLKRTIGMILTFLEQAGSSPSLPPPPESDSPYSLPGSKRFLVSVSTHTGTPAAPAPSCFHALYAESPLFAEDGVPSRALLYHRPCTLREFDLVDVIMRRWWNTLHNPPPRRGSISFDRLLSLSSAELQMRRWRVRYLLHFLKSRGVLRSCLTLRSDQVNAAPSPNERIHRGEAFERLEMVGDFFFKSLTPDRMHTVFPADEGGLTAELQCFERALDSNHGLLAIYDYLGLDDIVGCFLANNKAKADVVEAVIGELKVLLWSTEVVWGMEYYAVPGERATHVYLRALVAHTIAELGHTVLMWQLESTLRNCRDFLLKHTVEEYLGAEKGNERRASRGGDGCDVPADLPKYSPLPPLLAWNRRRLGVSMRRGEVPLASKQSRSSIPPSPQDPLRRLAPTASCIPEAIRDHYAVGRKKWSSYACKTAIQALCASLTQTALQHDSGHTADALSLNSSSASLPLSPEPQPSPTTPAYACVPRSVLRALVTANCVVIRNSAPPLARSTSTRRVAG”, which “soluble on expression in E. coli” value is on record?
**A.** Its value is “not soluble”.

**Q.** Which “soluble on expression in E. coli” value does the source give for “MGSDKIHHHHHHMVKSANLLHVSQPAVTKTVRELEEILGVSLFEREGRGIRITRYGEVFLRHAGATLAALRHAVDSVSQEAAKAGPPVRVGALPTVATRIMPQAMTAFLAENTGSPIKIVTGDNSVLLEQLRIGELDLVVGRLAAPEKMAGFSFEHLYSEPVVFVVRAGHPLLTGETAPFERMRDFPVLMPTRNSIIRPLVDYFLIANGVATLPNQIETVSDSFGRAFLKISDAVWVISEGVVAGDIAEGTICALPIDCSPTRGPVGLTVRADAMATLPQSLLMQAIRDAAAAIMP” here?
**A.** Its value is “not soluble”.

**Q.** For “MSLQTWIWYPGDYEIWLGNRMNNRRTERGAFFPPFWKTDSHYVVVEFSKKLDLAEPEEIFIAAEGKYNVKLDGKLQFGMPSTLKLPAGKHSLNIKVWNQSTPPTIYVKGKTVNTDKTWKVTYEDKEWIDESGKASDTSATVYMDAGCWNFDGATQLPSKFSLARKPMKAVSSTPRKEGVLYDFGKETFGYITLKEVKGKGTIHIYYGESPEEALDTEYCETLDKLLAEPGQITDLAIRNTRKLYDEYTLDNSKAFRYVYVTCDPGVTIQDVSMQYEYLPEEYRGSFKCNDEELNRIWEVGAYTMHLTTREFFIDGIKRDRWVWSGDAIQSYLMNYYLFFDNETVKRTIWLLRGKDPVTSHSNTIMDYTFYWFLSIYDYYMYSGDKDFVTQLYPRMQSMMDYVLGRTNANGMVEGMTGDWVFVDWADGYLDKKGELSFEQVLFCKSLETMALCAGLAGNTADKTKYEKLASALRSKLEPAFWNEQKQAMVHNRVQGKQSESVTRYANMFSVFFNYLNADKQQTIKHSVLQNDSILKITTPYMRFYELEALCALGEQESVMKEMKAYWGGMLKEGATSFWEKYNPEETGTRHLAMYGRPYGKSLCHAWGASPIYLLGKYYLGVKPTKPGYEEYSVTPCLGGLKWMEGTVPTPYGNIHIYMDKKEIRIKSDGGKGVLNIPTRKGMKAMTIEPGEEQVFKYEGHHHHHH”, which “soluble on expression in E. coli” value is on record?
**A.** Its value is “soluble”.

**Q.** Which “soluble on expression in E. coli” value does the source give for “MGSDKIHHHHHHKETSEKPVLFPDYADVTIPYNIAPLNFKIENPHAEAFAVLKFGEEKIQVKEKGGQFYLPASDWRKLLKRATGKAIQVKLYAKDKEWLAYPEFSLFVAPEPMDSYLAYRLIEPGYELWNQMGIYQRNLEDYKQSPIMENKYSGQNCMNCHSFCMQNPDKMLFHMRDKYSGTYLIDGDKIEKLNTKTDQTISPLVYPSWHPSGKYVAFSVNQTSQSFHANDKNRVEVFDSQSDVVVYDTEKHEIISTPSIRTAKAFETFPTFSPDGKTLYFCSAEARSMPHEYSEVKYNLCSIAFDPVTRSFGSRIDTLYNAGKDGKSASFPRVSPDGKFLLYTLSGYGNFSIWHKDADLYLLDIASGISHSLQNANSTDTESYHSWSSNSRWIVFSSRRIDGLYTRPYFAYIDEEGNASKPFLLPQKDTDYYHRFMKSYNIPEFITGKVSSKIRALSTLAKEDKGIDVTYRK” here?
**A.** The value was “not soluble”.

**Q.** With “TTAIASDRLKKRFDRWDFDGNGALERADFEKEAQHIAEAFGKDAGAAEVQTLKNAFGGLFDYLAKEAGVGSDGSLTEEQFIRVTENLIFEQGEASFNRVLGPVVKGIVGMCDKNADGQINADEFAAWLTALGMSKAEAAEAFNQVDTNGNGELSLDELLTAVRDFHFGRLDVELLG” as the sequence, how does the “soluble on expression in E. coli” value read?
**A.** Its value is “soluble”.

**Q.** Which “soluble on expression in E. coli” value does the source give for “MGSDKIHHHHHHMINSRARRNLIAQDSGEHRHDFPQILIGWRGEIECEFSKGSGRLNNGLVGIVPNAAEHLFRGLNNNSELLVIDVVLEDPYIQAMEQACNLSFSETLFKQPHFVSLAPEMLPLLEYSANQLLLDKKTATPQLNCQLVSLFMTQLSQMYSPEIKSSAINQRIEATRLNDIIDQRLARPPNNTELANLLHLSESHFYCICQQQFGVSPQKYVMRRRMQRAKFLLLNSKIPLSALASELGFSDVSSFSRAYKKYYQQPPGQTRTLFQLGLNANHASIRK” here?
**A.** The value was “not soluble”.

**Q.** Which “soluble on expression in E. coli” value does the source give for “MAHHHHHHMGTLEAQTQGPGSMQKNMVETEPVQGCRDFPPEAMRCRRHLFDVFHATAKTFGFEEYDAPVLESEELYIRKAGEEITEQMFNFITKGGHRVALRPEMTPSLARLLLGKGRSLLLPAKWYSIPQCWRYEAITRGRRREHYQWNMDIVGVKSVSAEVELVCAACWAMRSLGLSSKDVGIKVNSRKVLQTVVEQAGVTSDKFAPVCVIVDKMEKIPREEVEAQLAVLGLEPTVVDAITTTLSLKSIDEIAQRVGEEHEAVKELRQFFEQVEAYGYGDWVLFDASVVRGLAYYTGIVFEGFDREGKFRALCGGGRYDNLLTTYGSPTPIPCAGFGFGDCVIVELLQEKRLLPDIPHVVDDVVIPFDESMRPHALAVLRRLRDAGRSADIILDKKKVVQAFNYADRVGAVRAVLVAPEEWERGEVQVKMLREGTGKEEGGAERGFAVPLDRLV” here?
**A.** Its value is “soluble”.
